Laboratory results reported in patent US20120329707A1 (INDIANA UNIVERSITY RESEARCH AND TECHNOLOGY, published 2012).
Numbered stars: 1 amine (or outer) side, 2 acyl side, 3 side chain; on linkers, the order of the positions; unused ones are H or OH. Square brackets hold non-standard residues; d marks the D form. Primed or numbered codes have the meaning given here. Side chains are listed from the residue outwards. Ends that are not written are not given here. * marks the point of attachment. 40K‑TE PEG = 40 kDa PEG covalently bound via thioether, formed by reaction of the free thiol of the peptide (Cys side chain) with an iodoacetic-functionalized PEG; 40K‑TE PEG(3) = 40 kDa PEG bound to the Cys thiol via a thioether, made by reacting the free-thiol peptide with iodoacetic-functionalised PEG; 40K‑TE PEG″ = 40 kDa PEG bound to Cys via thioether made from an iodoacetyl-functionalised PEG; EDTA amide = ethylenediaminetetraacetic acid amide, O=C(O)CN(CCN(CC(=O)O)CC(=O)*)CC(=O)O; 20K‑TE PEG = 20 kDa PEG bound via thioether from iodoacetic-functioned PEG; benzoylpropionyl = benzoylpropionyl acyl group, O=C(CCC(=O)*)c1ccccc1; 12K‑ME PEG = 12 kDa PEG bound via maleimido-thioether; Acetyl(1-adamantyl) = O=C(CC12CC3CC(CC(C3)C1)C2)*; γGlu = O=C(O)[C@H](CCC(=O)[*:2])N[*:1]; Palmitoyl = CCCCCCCCCCCCCCCC(=O)*; Aib = CC(C)(N)C(=O)O

B1: peptide of SEQ ID NO: 52 (peptide)
peptide: H[Aib]QGTFTSDYSKYLDEK[Aib]AKEFVC(40K‑TE PEG(3))WLLDT-NH2
B2: peptide of SEQ ID NO: 49 (peptide)
peptide: H[dS]QGTFTSDK(benzoylpropionyl)SKYLDERAAQDFVQWLLDGGPSSGAPPPS-NH2
modifications: N-terminus assumed
SMILES: CC(C)C[C@H](NC(=O)[C@H](CC(C)C)NC(=O)[C@H](Cc1c[nH]c2ccccc12)NC(=O)[C@H](CCC(N)=O)NC(=O)[C@@H](NC(=O)[C@H](Cc1ccccc1)NC(=O)[C@H](CC(=O)O)NC(=O)[C@H](CCC(N)=O)NC(=O)[C@H](C)NC(=O)[C@H](C)NC(=O)[C@H](CCCNC(=N)N)NC(=O)[C@H](CCC(=O)O)NC(=O)[C@H](CC(=O)O)NC(=O)[C@H](CC(C)C)NC(=O)[C@H](Cc1ccc(O)cc1)NC(=O)[C@H](CCCCN)NC(=O)[C@H](CO)NC(=O)[C@H](CCCCNC(=O)CCC(=O)c1ccccc1)NC(=O)[C@H](CC(=O)O)NC(=O)[C@H](CO)NC(=O)[C@@H](NC(=O)[C@H](Cc1ccccc1)NC(=O)[C@@H](NC(=O)CNC(=O)[C@H](CCC(N)=O)NC(=O)[C@@H](CO)NC(=O)[C@@H](N)Cc1c[nH]cn1)[C@@H](C)O)[C@@H](C)O)C(C)C)C(=O)N[C@@H](CC(=O)O)C(=O)NCC(=O)NCC(=O)N1CCC[C@H]1C(=O)N[C@@H](CO)C(=O)N[C@@H](CO)C(=O)NCC(=O)N[C@@H](C)C(=O)N1CCC[C@H]1C(=O)N1CCC[C@H]1C(=O)N1CCC[C@H]1C(=O)N[C@@H](CO)C(N)=O
B3: peptide of SEQ ID NO: 42 (peptide)
peptide: H[Aib]QGTFTSDYSKYLDEKRA[Aib]EFV[Aib]WLLC(40K‑TE PEG)T-NH2
B4: peptide of SEQ ID NO: 51 (peptide)
peptide: H[Aib]QGTFTSDYSKYLDEKRA[Aib]EFVC(40K‑TE PEG)WLL[Aib]GGPSSGAPPPS-NH2
B5: peptide of SEQ ID NO: 44 (peptide)
peptide: H[dS]QGTFTSDK([γGlu-Palmitoyl])SKYLDEQAAKEFIC(20K‑TE PEG)WLLDT-NH2
B6: peptide of SEQ ID NO: 46 (peptide)
peptide: H[Aib]QGTFTSDYSKYLD[Aib]KRA[Aib]EFVC(40K‑TE PEG(3))WLLDGGPSSGAPPPS-NH2
B7: peptide of SEQ ID NO: 47 (peptide)
peptide: H[Aib]QGTFTSDYSKYLDEKRA[Aib]EFVC(40K‑TE PEG)WLLDGGPSSGAPPPS-NH2
B8: peptide of SEQ ID NO: 13 (peptide)
peptide: H[Aib]QGTFTSDYSKYLDEKRA[Aib]EFVC(40K‑TE PEG)WLLDT-NH2
B9: peptide of SEQ ID NO: 54 (peptide)
peptide: H[Aib]QGTFTSDYSKYLDEKRA[Aib]DFVC(40K‑TE PEG(3))WLLDT-NH2
B10: peptide of SEQ ID NO: 39 (peptide)
peptide: H[Aib]QGTFTSDYSKYLD[Aib]KRAKEFVQWLLC(40K‑TE PEG)T-OH
B11: peptide of SEQ ID NO: 43 (peptide)
peptide: H[dS]QGTFTSDK([γGlu-Palmitoyl])SKYLDEQAAKEFIC(12K‑ME PEG)WLLDT-NH2
B12: peptide of SEQ ID NO: 48 (peptide)
peptide: H[dS]QGTFTSDK([γGlu-Acetyl(1-adamantyl)])SKYLDERAAQDFVQWLLDT-NH2
modifications: N-terminus assumed
SMILES: CC(C)C[C@H](NC(=O)[C@H](Cc1ccc(O)cc1)NC(=O)[C@H](CCCCN)NC(=O)[C@H](CO)NC(=O)[C@H](CCCCNC(=O)CC[C@H](NC(=O)CC12CC3CC(CC(C3)C1)C2)C(=O)O)NC(=O)[C@H](CC(=O)O)NC(=O)[C@H](CO)NC(=O)[C@@H](NC(=O)[C@H](Cc1ccccc1)NC(=O)[C@@H](NC(=O)CNC(=O)[C@H](CCC(N)=O)NC(=O)[C@@H](CO)NC(=O)[C@@H](N)Cc1c[nH]cn1)[C@@H](C)O)[C@@H](C)O)C(=O)N[C@@H](CC(=O)O)C(=O)N[C@@H](CCC(=O)O)C(=O)N[C@@H](CCCNC(=N)N)C(=O)N[C@@H](C)C(=O)N[C@@H](C)C(=O)N[C@@H](CCC(N)=O)C(=O)N[C@@H](CC(=O)O)C(=O)N[C@@H](Cc1ccccc1)C(=O)N[C@H](C(=O)N[C@@H](CCC(N)=O)C(=O)N[C@@H](Cc1c[nH]c2ccccc12)C(=O)N[C@@H](CC(C)C)C(=O)N[C@@H](CC(C)C)C(=O)N[C@@H](CC(=O)O)C(=O)N[C@H](C(N)=O)[C@@H](C)O)C(C)C
B13: peptide of SEQ ID NO: 40 (peptide)
peptide: H[Aib]QGTFTSDYSKYLD[Aib]KRAKEFVQWLLDTC(40K‑TE PEG″)-NH2
B14: peptide of SEQ ID NO: 55 (peptide)
peptide: H[dS]QGTFTSDK(EDTA amide)SKYLDERAAQDFVQWLLDGGPSSGAPPPS-NH2
B15: peptide of SEQ ID NO: 41 (peptide)
peptide: H[Aib]QGTFTSDYSKYLDEKRA[Aib]EFVC(40K‑TE PEG)WLL[Aib]T-NH2
B16: peptide of SEQ ID NO: 38 (peptide)
peptide: H[Aib]QGTFTSDYSKYLD[Aib]KRA[Aib]EFVC(40K‑TE PEG″)WLLDT-NH2
B17: peptide of SEQ ID NO: 45 (peptide)
peptide: H[Aib]QGTFTSDYSKYLDEKRA[Aib]EFVC(40K‑TE PEG)WLLDT-OH

target: glucagon receptor; test: cell-based or functional assay

Binder | EC50 (nM) at glucagon receptor [nM]
B1 | 4.5
B2 | 0.063
B3 | 1.01
B4 | 2.04
B5 | 0.023
B6 | 0.227
B7 | 0.591
B8 | 0.141
B9 | 0.939
B10 | 0.852
B11 | 0.02
B12 | 0.026
B13 | 1.19
B14 | 4.34
B15 | 0.309
B16 | 0.141
B17 | 0.651

target: GLP-1 receptor; test: cell-based or functional assay

Binder | EC50 (nM) at GLP-1 receptor [nM]
B1 | 0.054
B2 | 0.01
B3 | 0.117
B4 | 0.062
B5 | 0.017
B6 | 0.136
B7 | 0.052
B8 | 0.067
B9 | 0.097
B10 | 1.28
B11 | 0.011
B12 | 0.039
B13 | 0.653
B14 | 0.108
B15 | 0.074
B16 | 0.31
B17 | 1.44
